Changes are numbered by the printed parent chain.
B1: antibody 34 (antibody, V domains shown)
VH: QVTLKESGPGILQPSQTLSLTCSFSGFSLSTFSLGVGWIRQSSGKGLEWLAHIWWDDEKYYNPALKSRLTISKDTSKNQVFLKIANVDAADTATYYCARAYYSKSYYALDYWGQGTSVTVSS
VL: DIQMTQSPSSLSASLGERVSLTCRASQEISGYLSWLQQKPDGTIKRLIYAASTLDSGVPKRFSGSRSGSDYSLAISSLESEDFADYYCLQYANFPFTFGSGTKLEIK
notes: Mouse IgG, kappa light chain; also called clone #34; m34
B2: antibody 48 (antibody, V domains shown)
VH: QVQLQQSGTELVRPGTSVKVSCKASGYAFTNYLIEWVKQRPGQGLEWIGVINPGSGFTKYNEKFKGKATLTADKSSSTVYMHLSSLTSEDSAVYFCARGLYRAMDYWGQGTSVTVSS
VL: DIQMTQSPASQSASLGESVTITCLASQTIATWLAWYQQKPGKSPQLLIYGATTLADGVPSRFSGGGSGTKFSFKISSLQAEDFVSYYCQQLYSTPYTFGGGTKLEIK
notes: Mouse IgG, kappa light chain; also called clone #48; purified antibody 48
B3: antibody 47 (antibody, V domains shown)
VH: B2 VH with T9A, K59N, T69I, T71N, V79A, H82Q, S84I, G99D, Y101K, Y106H
VL: B2 VL with A30G, Y49H, G50A, T53S, G65S, L91I, T94S
notes: Mouse IgG, kappa light chain; also called clone #47
B4: antibody 50 (antibody, V domains shown)
VH: B2 VH with T9A, T16A, T30S, V79A, H82Q
VL: B2 VL with A30G, G50A, T52A, T53S, S85N, L91I
notes: Mouse IgG, kappa light chain; also called clone #50; purified antibody 50
B5: antibody 43 (antibody, V domains shown)
VH: QVALKESGPGILQPSQTLSLTCSFSGFSLSTFGMGVGWIRQSSGKGLEWLANIWWDDDKYYNPALKSRLTISKDASKNQAFLKIANVDTADTATYYCARIGNYGSNYWYFDVWGTGTTVTVSS
VL: QIVLTQSPAIMSASPGERVTMTCSANSRISYMYWYQQKPGSSPRLLIYDTSNLASGVPVRFSGSGSGTSYSLTISRMEAEDAATYNCQQWSSYPLTFGAGTKLELK
notes: Mouse IgG, kappa light chain; also called clone #43
B6: antibody 42 (antibody, V domains shown)
VH: B5 VH with A3T, F24L, M34R, S42P, N52H, D58E, A75T, A80V, K83R, G101Q
VL: B5 VL with Q1L, R18K, S24G, N26T, Y33F, L45V, M77V, A82V, N86Y, S91N
notes: Mouse IgG, kappa light chain; also called clone #42; m42
B7: antibody 5 (antibody, V domains shown)
VH: B5 VH with A3T, S42P, N52H, D58E, P63S, D74A, A75T, G101S, D111N
VL: QVVLTQSPALMSASPGEKVTMTCSAGSSVSCMYWYQQKPGSSPRVLIYDTSNLASGVPARFTGSGSGTSYSLTISRMEAEDAASYYCQQWNSYPLTFGAGTKLELK
notes: Mouse IgG, kappa light chain; also called clone #5; purified antibody 5
B8: antibody 44 (antibody, V domains shown)
VH: B5 VH with A3T, S42P, G44E, N52H, A75T, A80I, A85T, D91E, A98S
VL: QIVLTQSPAVMSASPGEKVTMTCTASSSVYYMYWYQQTPGSSPRLLIYDTSNLASGVPVRFSGSGSGTSYSLTISRMEAEDAATYYCQQWNTYPLTFGAGTKLELK
notes: Mouse IgG, kappa light chain; also called clone #44; m44
B9: antibody 57 (antibody, V domains shown)
VH: B5 VH with A3T, S42P, N52H, A75T, A80I, T92S, Y95F, G101E
VL: B8 VL with V10I, T24S, Y30S, T38K, L45V, I74V, T92S
notes: Mouse IgG, kappa light chain; also called clone #57
B10: antibody 54 (antibody, V domains shown)
VH: QVTLKESGPGILQPSQTLSLTCSFSGFSLSTFGLGVGWIRQPSGKGLECLAHIWWDDDKYSNPALKSRLTISKDTSKNQVFLKIANVDSADTATYFCARILNYGSNYWYFDVWGTGTTVTVSS
VL: B5 VL with I10L, R18K, N26S, R28S, Y70F, I74V, N86Y, S91N
notes: Mouse IgG, kappa light chain; also called clone #54
B11: antibody 56 (antibody, V domains shown)
VH: B5 VH with A3T, S42P, A51T, P63S, A64V, A75T, A80V, G101A, N102A
VL: B5 VL with R18K, N26S, R28S, I29V, L45V, A54S, N86Y
notes: Mouse IgG, kappa light chain; also called clone #56
B12: antibody 22 (antibody, V domains shown)
VH: B5 VH with A3T, S42P, N52H, D58E, P63S, D74A, A75T, A80V, G101S, D111N
VL: B7 VL with C31Y, S84T
notes: Mouse IgG, kappa light chain; also called clone #22; m22
B13: antibody 49 (antibody, V domains shown)
VH: QVTLKESGPGILQPSQTLSLTCSFSGFSLSTFGMGVGWIRQPSGKGLEWLAHIWWDDDKYYNPALQSRLTVSKDTAKNQVFLKIANVDTADTAIYYCARVGNYGSNYWYFAVWGTGTTVTVSS
VL: B8 VL with V10I, T24S, Y30S, T38K, T92S
notes: Mouse IgG, kappa light chain; also called clone #49
B14: antibody 16 (antibody, V domains shown)
VH: QVTLKESGPGILQPSQTLSLTCSFSGFSLSTFALGVGWIRQPSGRGLEWLAHIWWDDDKYYNPALKSRLTISKDTSKNHVFLKIANVDTADTATYYCARITTYYYGMDYWGQGTSVTVSS
VL: DIVLSQSPATLSVTPGDSVSLFCRASQSIGNHLHWYQQESHASPRLLIKYASQSISGIPSRFSGSGSGTDFTLSINSVETEDFGMYFCQQSYNWPLTFGAGTKLELK
notes: Mouse IgG, kappa light chain; also called clone #16; m16
B15: antibody 51 (antibody, V domains shown)
VH: QVQLQQSGAELVKPGASVKISCKASGYTFSNYWMNWVKQRPGKGLEWIGQIYPGDGDTKYNGKFKNKATLTADKSSSTAYMQFSSLTSEDSAVYFCARGDLVFVYWGLGTLVTVSA
VL: DVQITQSPSYLAVSPGETITINCRASKNIRKYLAWYQEKPGKTNKLLIYSGSTSQSGVPSRFSGSGSGTDFTLTISSLEPEDFAMYYCQQHNEYPYTFGGGTKLEIK
notes: Mouse IgG, kappa light chain; also called clone #51
B16: antibody 46 (antibody, V domains shown)
VH: QVTLKESGPGILQPSQTLSLTCSFSGFSLSTFGMGVGWIRQPSGKGLEWLAHIWWDDDNYYNQALKSRLTISKDNTKNQVFLNIANVDTADTATYYCARIRSYDYDVRYAMDYWGQGTSVTVSS
VL: DIKMTQSPSSMYASLRERVTITCKASQDINSYLSWFQQKPGKSPKTLIYRANRLVDGVPSRFSGSGSGQDYSLTISSLEYEDLGIYYCQQYYEFPLTFGAGTRLELK
notes: Mouse IgG, kappa light chain; also called clone #46

These binders were tested against T1, miR2-FL-WT-FLAG (mouse iRhom2 full length wild type C-terminally tagged with the triple-FLAG epitope) (mouse, UniProt Q80WQ6 1-827) (assay: FACS, MEF-DKO-miR2-FL-WT-FLAG cells).
T1 construct: also called expressed by MEF-DKO-miR2-FL-WT-FLAG cells
T1 sequence: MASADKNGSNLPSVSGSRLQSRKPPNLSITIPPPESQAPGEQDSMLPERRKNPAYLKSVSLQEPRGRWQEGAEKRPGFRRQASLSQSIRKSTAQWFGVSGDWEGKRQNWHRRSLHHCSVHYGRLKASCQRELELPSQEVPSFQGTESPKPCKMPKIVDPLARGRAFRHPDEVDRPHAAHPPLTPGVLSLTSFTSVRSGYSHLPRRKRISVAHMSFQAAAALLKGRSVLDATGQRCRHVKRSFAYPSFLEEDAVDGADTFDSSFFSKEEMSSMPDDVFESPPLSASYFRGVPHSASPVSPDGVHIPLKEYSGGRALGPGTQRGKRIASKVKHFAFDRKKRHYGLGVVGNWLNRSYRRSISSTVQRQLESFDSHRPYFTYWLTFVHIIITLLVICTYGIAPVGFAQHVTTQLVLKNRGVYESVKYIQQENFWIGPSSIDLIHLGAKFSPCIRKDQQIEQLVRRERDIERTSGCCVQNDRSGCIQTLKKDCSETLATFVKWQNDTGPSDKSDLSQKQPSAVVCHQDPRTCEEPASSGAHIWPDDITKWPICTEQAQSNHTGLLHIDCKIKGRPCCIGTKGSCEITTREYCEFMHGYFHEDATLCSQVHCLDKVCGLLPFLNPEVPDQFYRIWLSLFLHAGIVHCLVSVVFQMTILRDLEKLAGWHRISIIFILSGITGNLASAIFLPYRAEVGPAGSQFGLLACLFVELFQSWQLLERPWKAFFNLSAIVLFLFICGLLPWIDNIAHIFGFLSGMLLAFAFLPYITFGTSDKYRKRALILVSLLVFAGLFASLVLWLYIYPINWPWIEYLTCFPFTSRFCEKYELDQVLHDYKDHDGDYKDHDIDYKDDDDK
Method: In brief, immortalized MEF-DKO-EV control cells, MEF-DKO-hiR2-FL-WT-FLAG cells and MEF-DKO-miR2-FL-WT-FLAG cells were harvested with 10 mM EDTA in PBS, washed and resuspended in FACS buffer (PBS, 3% FBS, 0.05% sodium azide), and seeded in Nunc U-bottom 96-well plates (Thermo Fisher Scientific, USA) at approximately 3×10⁵ cells per well. To pellet cells and remove supernatants, the plates were centrifuged at 1,500 rpm and 4° C. for 3 minutes. For primary staining, cells were resuspended in 100 μl per well of either FACS buffer alone (controls), mouse monoclonal anti-FLAG IgG (Sigma-Aldrich, USA) at 3 μg/ml FACS buffer or the antibodies of the present disclosure also at 3 μg/ml FACS buffer and incubated on ice for 1 hour. Afterwards, plates were centrifuged at 1,500 rpm and 4° C. for 3 minutes and washed twice with 200 μl per well of FACS buffer. For secondary staining, cells were spun down and resuspended in 100 μl per well of PE-conjugated goat anti-mouse IgG F(ab′)2 detection fragment (Dianova, Germany) diluted 1:100 in FACS buffer. Protected from light, the cell suspensions were incubated on ice for 1 hour. Plates were then centrifuged at 1,500 rpm and 4° C. for 3 minutes and washed three times with 200 μl per well of FACS buffer. Finally, cells were resuspended in 150 μl per well of FACS buffer and analyzed using a BD Accuri™ C6 Plus flow cytometer (Becton Dickinson, Germany).
B1: no binding (tested: 3 µg/ml). B2: no binding (tested: 3 µg/ml). B3: no binding (tested: 3 µg/ml). B4: no binding (tested: 3 µg/ml). B5: no binding (tested: 3 µg/ml). B6: no binding (tested: 3 µg/ml). B7: no binding (tested: 3 µg/ml). B8: no binding (tested: 3 µg/ml). B9: no binding (tested: 3 µg/ml). B10: no binding (tested: 3 µg/ml). B11: no binding (tested: 3 µg/ml). B12: no binding (tested: 3 µg/ml). B13: no binding (tested: 3 µg/ml). B14: no binding (tested: 3 µg/ml). B15: no binding (tested: 3 µg/ml). B16: no binding (tested: 3 µg/ml).
